Test: yeast display, Sf9 membrane polyspecificity reagent, FACS + sequencing; frameworks hold sequencing errors
Method in brief: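 Synthetic nanobody libraries on Saccharomyces cerevisiae BJ5465 were galactose-induced for 36–48 hours, stained 1 hour at 4 °C with 10% biotinylated, detergent-solubilized Sf9 membrane reagent and enriched on streptavidin microbeads. FACS then separated cells into low and high (top ~1%) gates by anti-HA (expression) and streptavidin (reagent binding) fluorescence. Genes were colony-PCR amplified, MiSeq 2 × 250 sequenced and CDR-length filtered. A clone's polyreactivity label is that of its gate of origin.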

Row | Sequence | polyreactivity (PSR sort gate)
1 | QVQLVESGVGLVQAGGSLGLTCAASGSIFYRYTMGWYREAPGKERELVAAISSDGDSTYYADSVKGRFTISRDNAKNTVYLQMNSLKPEDTAVYYCAADLEPYIGYHFYYWGQGTQVTVSS | low polyreactivity
2 | QVQLVESGGGLVQAGGSLRLSCAASGGIFDTNAMGWYRQAPGKEREFVAAITGSGGSTYYADSVKGRFTISRDNAKNTVYLQMNSLKPEDTAVYYCAAPLSYYWVYIVRYGYDYWGQGTQVTVSS | low polyreactivity
3 | QVQHVESGGGLVQAGGSLRLSCAASGSIFVWYAMGWYRQAHGKERELVAAINWSGGRTYYADSVKGRFTISRDNAKNTVYLQMNSLKPEDTAVYYCAAELRRSDTYNYWGQGTQVTVSS | high polyreactivity
4 | QVQLEDSGGGLVQAGGRLRLSCAASGSIFFSYAMGWYRQAPGTERELVAGINWSGGSTYADCVKGRFTISRDNAKNTVYLQMNSQKPEDTAVYYCAAKYYSERSRYHYWGLGTQVTVSS | low polyreactivity
5 | QVQLVESGRGLVQAGGSLRLSCDASGFIFPWYAMGWYRQAPGKERELVAAITSGGSTTYADSVKGRFTISRDNAKNTVYLQMNSLKPEDTAVYYCAAAYPWGDYGVSDYDYWGQGTQVTVSS | high polyreactivity
6 | QVQLVESGGGLVQAGGSLRLSCAASGFTFIRYAMGWYSQAAGKDRELVARITSSGSSTYADSVKGRFTISRDKAKNTVYLQMNSLKPEDTAVYYCAAKVHTRRRFDYWGQGTQVTVSS | high polyreactivity
7 | QVQLVESGGGLVQAGGSLRLSCAASGSTFQLYDMGWYRQEPGKERELVAGISRDGSTYYADSVKGRFTISRDNAKNTVYLLMNSLKPEDTAVYYCAAKFYGNKRDLYYWGQGTQVTVSS | low polyreactivity
8 | QVQLVESGGGLVQAGGSLRLSCAASGRTFARYAMGWYRPAPGKERELVAAISSSGVSSYYADSVKGRFTISRDNAKNTVYLQMNSLKPDDTAVYYCVTYRNWWYDYWGQGTQVTVSS | high polyreactivity
9 | QVQLVESGGGLVQAGGSLRLSCAASGITFTVYAMGWYRQAPGKERELVAAITSTGSTNYADSVKGRFTISRDNAKNTVYLQMNSLKPEDTAVYYCAARRSHQYRGPHFNYWGQGTQVTVSS | low polyreactivity
10 | QVQLVESGGGLVQAGGSLRLSCAASGSTFSANAMGWYRQAPGKERELLAAISSGDITYYADSVKGRFTISRDNAKNTVYLQMNSLKPEDTAVYYCAKYTRPTGNVDDGFEYWGQGTQVTVSS | low polyreactivity
11 | QVQLVESGVGLFQAGGSLRLSCAASGRIFTLYTMGWYRQAPGKEREFVAALSRTGGRTYYADSVKGRFTISRDNAKNTVYLQMNSLKPEDTAVYYCAARSQSYTTHRYYYWGQGSQVTVSS | high polyreactivity
12 | QVQLVESGGGLVQAGGSLRLSCAASGRTFHLYAIGWSRQAAGKERELVAAINSGGRTNYADSVKGRFTISLDNAKNTVYLQLNSLKPEDTAVYYCAARANPYVLKYYYWGQGSQVTVSS | high polyreactivity
13 | QVQLVESRGGLVQAGGSLRLSCAASGFILSWYAMGWYRQARGKERELVAAISTSGDSTYYADSVKGRFTISRDNAKNTVYVQMNRLKPEDTAVYYCAAVKVSAGTSRGYYYWGPGTQVTVSS | high polyreactivity
14 | QVQLVESGGGLVQAGGSLRLICAASGYIFVRNAMGWYRQAPGKEREFVATISRRGGTTYYADSVKGRFTISRDNAKNTVYLQMNSLKPEDTAVYYCAARNWPSRGYKYWGQGTQVTVSS | high polyreactivity
15 | QVQLVESVGGLVQAGGSLRLSCAASGSIFLQNAMGGYRQAPGKERELVAAITNGGSTNYADSVKGRFTISRDNAKNTVYLQMNSLKPEDTAVYYCAAYPLYTGSYDRGGYWGQGTLVTVSS | low polyreactivity
16 | QVQLLESGGGLVQAGGSLRLSCAASGYNFGNYAMGWYRQAPGKERELVAAITSRGGRTYYADSVKGRFTISRDNAKNSFYLQMNSLIPVDTGVYYCYRAVTTKDGYWGQCTQVTVSS | high polyreactivity
17 | QVQLVESGGGLVQAGVSLRLSCAASGRTFGHYTMGWYRQAPGKERELVARISRTGSTKYADSVKGPFTISRDNAKNTVYLQMNSLKPEDTAVYYCARVQAGGYGERVYAYHYDYWGQGTQVTVSS | high polyreactivity
18 | QVQLVESGGGLVQAGGSLRLSCAASGRTFKYNAIGWYRQAPGKERELVAVISRSTGRTYYADSVKGRFTISRDNAKNTVYLQMNSLKPEDTAVYYCNRVSRQYYYQRGFEYDYWGQGTQVTVSS | high polyreactivity
19 | QVQLVESGGGLVQAGGRLRLSCAASGSIFGVYAMGWYRQSPGKERELVATISRSGAITYYADSVKGRFTISRDNAKNTVYLQMNSLKPEDTAVYYCAADFFSRDWGQGTQVTVSS | low polyreactivity
20 | QVQLVESGGGLVQAGGSLRLSCAASGSIFVVNAMGWYRQAPGKERELVAGISFRGGTTYYADSVKGRFTISRDNAMNTVYLQMNSLKPEDTAVYYCNAVYTSNRNEYDYWGQGTQVTVSS | low polyreactivity
21 | QVQLVESGGGLVQAGGSLRLSCAASGFIFSYNVMGWYRQAPGKERELVAAISSGGGRTYYADSVKGRFTISRDNAKNTVYLQMNSLKPEDTAVYYCNAYRLSRVQLYYWGQGTQVTVSS | high polyreactivity
22 | QVQLQESGGGLVQAGGTLRLSCAASGSFSADEDMGWYRQEQGKEREFVAGISVGGNTNYADSVKGRFTISRENAKNTVYLQINSLKPEDTAVYYCAVLQDVYDALDYWAQGTQVTVSS | high polyreactivity

Row | Sequence | polyreactivity (PSR sort gate)
23 | QVQLVESGGGLVQAGGSLRLSCAASGSIFKANAMGWYRQAPGKERELVATISTSSGGTYYADSVKGRFTISRDNAKNTVYLQMNSLKPEDTAVYYCAALTYPPFYWGQGTQVTVSS | high polyreactivity
24 | QVQLVESGGGLVQARGSLRLSCAASGIIFSTYAMGWYRQAPGKERELVAAISASGVRTYYADSVKGRFTISRDNAKNTVYLQMNSLKPEDTAVYYCAVRGYPYLRYYWGQGTQVTVSS | high polyreactivity
25 | QVQLVESGGGLVQAGGSLRLSCAASGRIFPTYAMGWYRQAPGKERELVAAITWRGGRTYYADSVKGRFTISRDNAKNTVYLQMNSLKPEDTAVYYCAAGWLTRSYEYDYWGQGTQVTVSS | high polyreactivity
26 | QVQLVESVGGLVQAGGSLRLSCAASGRTFYHYAIGWYIQAPGQERELVAAITYRGGNTYYADSVKGRFTISRDNAKNTVYLQMNRLKPEDTAVYYCAKQGVRRHYGYDYWGQGTQVTVSS | high polyreactivity
27 | QVQLVESGGGLVQAGGSLRLSCAASGSIFHYNTMGWYRQAPGKERELVAAITYSGGSTYYADSVKGRYTISRDNAKNPVYLQMNSLKPEDTAVYYCAVRGPGTSTYWYHEYEYWGQGTQVTVSS | high polyreactivity
28 | QVQLVESGGGLVQAGGSLRLSCAASGSTFFAYAMGWYRQAPGKERELVAAITGRGSTYYADSVKGRFSISRDNAKNTVYLQMNSLKPEDTAVYYCAAQRSRRYYRLDYWGQGTQVTVSS | high polyreactivity
29 | QVQLEESGGGLVQAGGSLRLSCAASGRTFYPYAMGWYRQAPGKEREFVARITWSGGRTYYADSVKGRFTISRDNAKNTVYLQMNSLKPEDTAVYYCAARGHDAVIATRYDYWGQGTQVTVSS | high polyreactivity
30 | QVHLVESGGGLVQAGGSLRLSCAASGFTFPWYAMGWYRQAPGKERELVAAINTGGSTYYADSVKGRFSISRDNAKNTVYLQMNSLKPDDTEVYYCATLGRYRYLNTYYWGSHDYWGQGTQVTVSS | high polyreactivity
31 | QVQLVESGGGLVQAGGSLRLSCAASGIIFPGKAMGWYRQAPGKERELVAAISSGGNTKYADSVKGRFTISRDNAKNTGYLQMNSLNPEDTAVYYCAAAARARNPSYGRNYWGQGTQVTVSS | high polyreactivity
32 | QVQLVESGGGLVHAGGSLRLSCAASGRTFWSYSMGWYRQAPGKEREFVAAISRRGGITYYADSVKGRFTISRDNAKTTVYLQMNSLKPEDTAVFYCAKGALSYYGGQVKYDYWGQGTQVTVSS | high polyreactivity
33 | QVQLVESGGGLVQAGGSLRLSCAASGYIFDDYAMGWYRQAPGKERELVAAISRGGSTYYADSVKGRFTISRDNSKNTVYLQMNSLKPEDTEVYYCAAVYRVRRITYVYWGQGTQVTVSS | high polyreactivity
34 | QVQLVESGGGLVQAGGPLRLSCAASGIIFGFYAMGWYRQPPGKERELVADITSSGGSTYYADSVKGRFTISRDNAKNTVYLQINSLKPEDTAVYYCAADGVPGGPPVEGMDYWGQGTQVTVSS | low polyreactivity
35 | QVQLVESGGGLLKAGGSLRLTCAASGRIFSSYDMGWYRQAPGKERELVAAISNSGGNTYYADSVKGRFTISRDNAKNTVYLQMNSLKPEDTAVYYCAAVAFWAIFDFYWYYPYEYDYWGQGTQVTVSS | high polyreactivity
36 | QVQLVESGGGLVQAGGRLRFSCAASGRIFYSYTMGWYRQAPGKERELVASISRSSGDTYYADSVKGRFTISRDNAKNPVYLQMNSLKPEDTAVYYWAARIKTYSKRYYWGQGTQVTVSS | high polyreactivity
37 | QVQLVESGGGLVQAGGSLRLSCAASGFTFGLYAMGWYRQAPGKERELVAAITWSGGSTYYADSVKGRFTISRDNAKNTVYLQMNSLKPEDTAFYYCNRLSNNREYDYWGQGTQVTLSS | high polyreactivity
38 | QVQLVESGGGLVQAGGSLRLSCAASGRIIDRNAMGWYRQAPGKERELVAAISSSGSTNYADSVKGRFTISRDNAKNTVYLQLNSLKPEDTAVYYCAARWRSVLASGTRPVSFDYWGQGTQVTVSS | low polyreactivity
39 | QDQLVESGGGLVQAGGRLRLSCAASGSIFLRNAIGWYRQAPGKERDLVAAISKSGGSTYYADSVKGRFTISRDNAKNTVYLQMNSLKPEDTAVYYCAARTTYLYGMYYWGQGTQVTVSS | low polyreactivity
40 | QVQLVESGGGLVQAGGSLRISCAASGRTFVGNAMGWYRQAPGKERELVAAMTLSDGSTYYADSVKGRFTISRDIAMNTVYLQMNSLKPEDTAVYYCNAGDGPDEEYDYWGQVTQVTVSS | low polyreactivity
41 | QVQLVESGGGLVQAGGSLRLSCAASGSTLALYAMGWYRQAPGKERELVAVITSGGSTDYADSVKGRFTISRDNAKNTVYLQMNSLKPEDTAVYYCAAEGRPGKYSYVYWGQGTQVTVSS | low polyreactivity
42 | QVQLVESGGGLVQAGGSLRLSCAATGRTFRPYAMGWYTQAPGKEREMVDAIDSSGTSTYYADSVKGRFTISRDNAKKTVYLQMNSQKPEDTAVYYCAKAWPDHWYSRYDYWGQGTQVTVSS | low polyreactivity
43 | QVQHVESGGGLVQAGGSLRLSCAASGIIFIVYAMGWYRQAPGKERELVAAISNGGSTYYADSVKGRFTISRDNAKNTVYLQMNSLKPEDTAVYYCAAGGALASQWSKKLYDYWGQGTQVTVSS | low polyreactivity

From the nanobody polyreactivity screen of Harvey et al. (2022)
